Molecular target: T1, R5 peptide
T1 chain: SSKKSGSYSGSKGSKRRIL

B1: N-myrisotyltransferase 1 (NMT1) (protein)
chain: MADESETAVKPPAPPLPQMMEGNGNGHEHCSDCENEEDNSYNRGGLSPANDTGAKKKKKKQKKKKEKGSETDSAQDQPVKMNSLPAERIQEIQKAIELFSVGQGPAKTMEEASKRSYQFWDTQPVPKLGEVVNTHGPVEPDKDNIRQEPYTLPQGFTWDALDLGDRGVLKELYTLLNENYVEDDDNMFRFDYSPEFLLWALRPPGWLPQWHCGVRVVSSRKLVGFISAIPANIHIYDTEKKMVEINFLCVHKKLRSKRVAPVLIREITRRVHLEGIFQAVYTAGVVLPKPVGTCRYWHRSLNPRKLIEVKFSHLSRNMTMQRTMKLYRLPETPKTAGLRPMETKDIPVVHQLLTRYLKQFHLTPVMSQEEVEHWFYPQENIIDTFVVENANGEVTDFLSFYTLPSTIMNHPTHKSLKAAYSFYNVHTQTPLLDLMSDALVLAKMKGFDVFNALDLMENKTFLEKLKFGIGDGNLQYYLYNWKCPSMGAEKVGLVLQ
myristoylation of R5 (LC-MS time course): A time course showing the incorporation of one myristoyl group was determined by LC-MS
